B1: ACI-7067-1111B12-Ab2 (antibody, V domains shown)
VH: QVQLLQPGTALVMPGASVKLSCKASGYTFTTYWMHWVKQRPGQGLEWIGNINPINGGSNYNEKFKSKASLTVDKSSSTAYMQLSSLTSEDSAVYYCVIAMDYWGQGTSVTVSS
VL: DIQMTQSPSSLSASLGERVSLTCRASQDIGISLNWFQQEPDGTIKRLIYATSSLDSGVPKRFSGNRSGSDYSLTISSLESEDFADYYCLQFASSPLTFGAGTKLELK
B2: ACI-7067-1108B11-Ab2 (antibody, V domains shown)
VH: EVQLVESGGGLVQPKGSLKLSCAASGFTFNTYAMHWVRQAPGKGLEWVARIRSKGSNYATNYADSVKDRFTISRDDSQSMLYLQMNNLKTEDTAMYYCVRGHGSSYFSYWGQGTLVTVSA
VL: QIVLTQSPAIMSASPGERITMTCSANSSVTYMHWYQQKSGTSPKRWIYDTSNLASGVPARFSGSGSGTSYSLTISSMEAEDAATYYCQQWKSHPPTFGAGTKLELK
B3: ACI-7067-1116F2-Ab1 (antibody, V domains shown)
VH: DVQLQESGPGFVKPSQSLSLTCSVTGYSITRGFYWNWIRQFPGNKLEWMGYISDDGNSNYNPSLKNRISITRDTFKNQVFLRLNSVTTEDTATYYCTRGDLLWGQGTTLTVSS
VL: not shown
B4: ACI-7067-1112H8-Ab2 (antibody, V domains shown)
VH: EVKLEESGGGLVQPGGSMKLSCAASGFTFTDAWMNWVRQSPEKGLEWIAEIRNKAHNYATYYAESVKGRFDISGDDSKSSVYLQMNNLRVEDTGIYYCTIYSYWGPGTLVTVSA
VL: SIVMTQTPKFLLMSPGDRVTMTCTASQSVSNYVAWYQQKPGQSPKLLIYSASNRFTGVPDRFTGSGYGTDFTFTINTVQTEDMAVYFCQQDYTSPYTFGGGTKLEIK
B5: ACI-7079-2501B11-Ab3 (antibody, V domains shown)
VH: QVQLQQSGPELVKPGASVKISCKASGYAFSSFWMNWMKQRPGKGLEWIGRIYPGDGDAHYNGEFKGRATLTADKSSSTAYMQLSSLTSEDSAVYFCARKGDFYGSNYDYWGQGTTLTVSS
VL: QAVVTQESALTTSPGETVTLTCRSSTGAVTTSNYANWVQEKPDHLFTGLIGGTNNRAPGVPARFSGSLIGDKAALTITGAQTEDEAIYFCALWYSNHLVFGGGTRLTVL
B6: ACI-8033-1F8-Ab1 (antibody, V domains shown)
VH: DVQLQESGPGLVKPSQSLSLTCSVTGYSITSGFYWNWIRQFPGNKLEWMGYISYDGSNNYNPSLKNRISIIRDTSKNQFFLKLKSVTSEDTATYYCVRGDVDWGQGTTLTVSS
VL: not shown
B7: ACI-8033-18C11-Ab1 (antibody, V domains shown)
VH: QVQLQQPGAELVKPGASVKMSCKAAGYTFSSYWITWVRQRPGQGLDWIGDIYPGGGVTNYNEKFKTKATLTVDTSSSTAYMQLSSLTSEDSAVYYCATAQTTFAYWGQGTLVTVSA
VL: DVLMTQTPLSLPVSLGDQASISCRSSQNIVHNNGNTYLEWYLQKPGQSPKLLIYKVSNRFSGVPDRFSGSGSGTDFTLKISRVEAEDLGVYYCFQGSHVPRTFGGGTKLEIK

What follows are binders tested against alpha-synuclein fibrils, P37840 (assay: SPR, captured mAb). Conditions: remark: other sources report otherwise.

Kd | koff | kon | Binder
39.2 nM | 0.00101 s⁻¹ | 26300 M⁻¹ s⁻¹ | B1
18.6 nM | 0.00205 s⁻¹ | 251000 M⁻¹ s⁻¹ | B2
55.1 nM | 0.000458 s⁻¹ | 8300 M⁻¹ s⁻¹ | B3
18.7 nM | 0.00245 s⁻¹ | 285000 M⁻¹ s⁻¹ | B4
31.8 nM | 0.000347 s⁻¹ | 10900 M⁻¹ s⁻¹ | B5
1010 nM | 0.000996 s⁻¹ | 983 M⁻¹ s⁻¹ | B6
30.4 nM | 0.000251 s⁻¹ | 8270 M⁻¹ s⁻¹ | B7

These binders were tested against monomeric alpha-synuclein, P37840 (assay: SPR, captured mAb). Conditions: remark: other sources report otherwise.

Kd | koff | kon | Binder
8.1 nM | 0.0014 s⁻¹ | 172000 M⁻¹ s⁻¹ | B1
8.1 nM | 0.00154 s⁻¹ | 191000 M⁻¹ s⁻¹ | B2
4.9 nM | 0.000232 s⁻¹ | 47000 M⁻¹ s⁻¹ | B3
6.3 nM | 0.00158 s⁻¹ | 250000 M⁻¹ s⁻¹ | B4
2.4 nM | 0.000335 s⁻¹ | 141000 M⁻¹ s⁻¹ | B5
24.3 nM | 0.000738 s⁻¹ | 30400 M⁻¹ s⁻¹ | B6
1.8 nM | 0.000263 s⁻¹ | 143000 M⁻¹ s⁻¹ | B7
